From article doi:10.1101/2025.03.06.641827 (bioRxiv, 2025)
Where a chain is given by its changes, count along the chain named. Names and notes keep the numbering of the source.

B1: Staphylococcus aureus IlvA regulatory domain (residues 336-422) (domain or fragment, UniProt Q2FF63 336-422, looked up)
chain: EMKHYFILNFPQRPGALREFVNDVLGPQDDITKFEYLKKSSQNTGTVIIGIQLKDHDDLIQLKQRVNHFDPSNIYINENKMLYSLLI
B2: Escherichia coli threonine dehydratase (IlvA), full length, His-tagged (enzyme, UniProt P04968 1-514, looked up)
chain: MADSQPLSGAPEGAEYLRAVLRAPVYEAAQVTPLQKMEKLSSRLDNVILVKREDRQPVHSFKLRGAYAMMAGLTEEQKAHGVITASAGNHAQGVAFSSARLGVKALIVMPTATADIKVDAVRGFGGEVLLHGANFDEAKAKAIELSQQQGFTWVPPFDHPMVIAGQGTLALELLQQDAHLDRVFVPVGGGGLAAGVAVLIKQLMPQIKVIAVEAEDSACLKAALDAGHPVDLPRVGLFAEGVAVKRIGDETFRLCQEYLDDIITVDSDAICAAMKDLFEDVRAVAEPSGALALAGMKKYIALHNIRGERLAHILSGANVNFHGLRYVSERCELGEQREALLAVTIPEEKGSFLKFCQLLGGRSVTEFNYRFADAKNACIFVGVRLSRGLEERKEILQMLNDGGYSVVDLSDDEMAKLHVRYMVGGRPSHPLQERLYSFEFPESPGALLRFLNTLGTYWNISLFHYRSHGTDYGRVLAAFELGDHEPDFETRLNELGYDCHDETNNPAFRFFLAG
modifications: PLP covalently bound to Lys62
B3: Staphylococcus aureus threonine dehydratase (IlvA), full length (residues 1-422) (enzyme, UniProt Q2FF63 1-422, looked up)
chain: MTVKTTVSTKDIDEAFLRLKDIVKETPLQLDHYLSQKYDCKVYLKREDLQWVRSFKLRGAYNAISVLSDEAKSKGITCASAGNHAQGVAYTAKKLNLNAVIFMPVTTPLQKVNQVKFFGNSNVEVVLTGDTFDHCLAEALTYTSEHQMNFIDPFNNVHTISGQGTLAKEMLEQAKSDNVNFDYLFAAIGGGGLISGISTYFKTYSPTTKIIGVEPSGASSMYESVVVNNQVVTLPNIDKFVDGASVARVGDITFEIAKENVDDYVQVDEGAVCSTILDMYSKQAIVAEPAGALSVSALENYKDHIKGKTVVCVISGGNNDINRMKEIEERSLLYEEMKHYFILNFPQRPGALREFVNDVLGPQDDITKFEYLKKSSQNTGTVIIGIQLKDHDDLIQLKQRVNHFDPSNIYINENKMLYSLLI
B4: Escherichia coli IlvA regulatory domain (amino acids 335-514) (domain or fragment, UniProt P04968 335-514, looked up)
chain: EQREALLAVTIPEEKGSFLKFCQLLGGRSVTEFNYRFADAKNACIFVGVRLSRGLEERKEILQMLNDGGYSVVDLSDDEMAKLHVRYMVGGRPSHPLQERLYSFEFPESPGALLRFLNTLGTYWNISLFHYRSHGTDYGRVLAAFELGDHEPDFETRLNELGYDCHDETNNPAFRFFLAG
B5: Escherichia coli IlvA regulatory domain (335-514) F352A mutant (domain or fragment, UniProt P04968 335-514, looked up)
chain: B4 chain with F18A

Legend:
[1] = target: the molecule itself; experiment: SEC
[2] = target: the molecule itself; experiment: crystal structure
[3] = target: the molecule itself; experiment: crystal structure; remark: listed apart in the source

Protein	stoichiometry N [1]	other results
B1	4	–
B2	–	stoichiometry N [2]: 4
B3	8	–
B4	2	–
B5	–	stoichiometry N [3]: 2
